Laboratory results reported in PMC7367873, “Dissecting the sequence determinants for dephosphorylation by the catalytic subunits of phosphatases PP1 and PP2A” (Nature Communications, 2020).
Blank lines part the entries; values can stand above or below the molecule they belong to.

Experiments:
[1] = tested on: GFP-14-3-3β; assay: GFP-14-3-3β co-IP with LC-MS/MS, untreated GFP-14-3-3β versus GFP control (14-3-3 interactome); format: binding, human; settings: pairwise comparison untreated vs GFP
[2] = tested on: GFP-14-3-3β and its binding proteins; assay: GFP-14-3-3β co-IP with LC-MS/MS label-free quantification, untreated versus PP1c-treated; design: species or system human; settings: pairwise comparison PP1 vs untreated
[3] = log2 difference, label-free quantification, 3 replicates each

B1: CLPTM1L (protein, UniProt Q96KA5 1-538, looked up)
Lipid scramblase CLPTM1L: MWSGRSSFTSLVVGVFVVYVVHTCWVMYGIVYTRPCSGDANCIQPYLARRPKLQLSVYTTTRSHLGAENNIDLVLNVEDFDVESKFERTVNVSVPKKTRNNGTLYAYIFLHHAGVLPWHDGKQVHLVSPLTTYMVPKPEEINLLTGESDTQQIEAEKKPTSALDEPVSHWRPRLALNVMADNFVFDGSSLPADVHRYMKMIQLGKTVHYLPILFIDQLSNRVKDLMVINRSTTELPLTVSYDKVSLGRLRFWIHMQDAVYSLQQFGFSEKDADEVKGIFVDTNLYFLALTFFVAAFHLLFDFLAFKNDISFWKKKKSMIGMSTKAVLWRCFSTVVIFLFLLDEQTSLLVLVPAGVGAAIELWKVKKALKMTIFWRGLMPEFQFGTYSESERKTEEYDTQAMKYLSYLLYPLCVGGAVYSLLNIKYKSWYSWLINSFVNGVYAFGFLFMLPQLFVNYKLKSVAHLPWKAFTYKAFNTFIDDVFAFIITMPTSHRLACFRDDVVFLVYLYQRWLYPVDKRRVNEFGESYEEKATRAPHTD
- Difference (log2), untreated vs GFP [1]: 0.3996 log2
- Difference (log2), PP1 vs untreated [2]: 0.154 log2

B3: CCDC18 (protein, UniProt Q5T9S5 1-1454, looked up)
Coiled-coil domain-containing …: MESSSSDYYNKDNEEESLLANVASLRHELKITEWSLQSLGEELSSVSPSENSDYAPNPSRSEKLILDVQPSHPGLLNYSPYENVCKISGSSTDFQKKPRDKMFSSSAPVDQEIKSLREKLNKLRQQNACLVTQNHSLMTKFESIHFELTQSRAKVSMLESAQQQAASVPILEEQIINLEAEVSAQDKVLREAENKLEQSQKMVIEKEQSLQESKEECIKLKVDLLEQTKQGKRAERQRNEALYNAEELSKAFQQYKKKVAEKLEKVQAEEEILERNLTNCEKENKRLQERCGLYKSELEILKEKLRQLKEENNNGKEKLRIMAVKNSEVMAQLTESRQSILKLESELENKDEILRDKFSLMNENRELKVRVAAQNERLDLCQQEIESSRVELRSLEKIISQLPLKRELFGFKSYLSKYQMSSFSNKEDRCIGCCEANKLVISELRIKLAIKEAEIQKLHANLTANQLSQSLITCNDSQESSKLSSLETEPVKLGGHQVESVKDQNQHTMNKQYEKERQRLVTGIEELRTKLIQIEAENSDLKVNMAHRTSQFQLIQEELLEKASNSSKLESEMTKKCSQLLTLEKQLEEKIVAYSSIAAKNAELEQELMEKNEKIRSLETNINTEHEKICLAFEKAKKIHLEQHKEMEKQIERLEAQLEKKDQQFKEQEKTMSMLQQDIICKQHHLESLDRLLTESKGEMKKENMKKDEALKALQNQVSEETIKVRQLDSALEICKEELVLHLNQLEGNKEKFEKQLKKKSEEVYCLQKELKIKNHSLQETSEQNVILQHTLQQQQQMLQQETIRNGELEDTQTKLEKQVSKLEQELQKQRESSAEKLRKMEEKCESAAHEADLKRQKVIELTGTARQVKIEMDQYKEELSKMEKEIMHLKRDGENKAMHLSQLDMILDQTKTELEKKTNAVKELEKLQHSTETELTEALQKREVLETELQNAHGELKSTLRQLQELRDVLQKAQLSLEEKYTTIKDLTAELRECKMEIEDKKQELLEMDQALKERNWELKQRAAQVTHLDMTIREHRGEMEQKIIKLEGTLEKSELELKECNKQIESLNDKLQNAKEQLREKEFIMLQNEQEISQLKKEIERTQQRMKEMESVMKEQEQYIATQYKEAIDLGQELRLTREQVQNSHTELAEARHQQVQAQREIERLSSELEDMKQLSKEKDAHGNHLAEELGASKVREAHLEARMQAEIKKLSAEVESLKEAYHMEMISHQENHAKWKISADSQKSSVQQLNEQLEKAKLELEEAQDTVSNLHQQVQDRNEVIEAANEALLTKESELTRLQAKISGHEKAEDIKFLPAPFTSPTEIMPDVQDPKFAKCFHTSFSKCTKLRRSISASDLTFKIHGDEDLSEELLQDLKKMQLEQPSTLEESHKNLTYTQPDSFKPLTYNLEADSSENNDFNTLSGMLRYINKEVRLLKKSSMQTGAGLNQGENV
- Difference (log2), untreated vs GFP [1]: 0.2347 log2
- Difference (log2), PP1 vs untreated [2]: 0.1672 log2

The next lines start with results.

- Difference (log2), PP1 vs untreated [2]: 0.1636 log2
B2: LBR (protein, UniProt Q14739 1-615, looked up)
Delta(14)-sterol reductase LBR: MPSRKFADGEVVRGRWPGSSLYYEVEILSHDSTSQLYTVKYKDGTELELKENDIKPLTSFRQRKGGSTSSSPSRRRGSRSRSRSRSPGRPPKSARRSASASHQADIKEARREVEVKLTPLILKPFGNSISRYNGEPEHIERNDAPHKNTQEKFSLSQESSYIATQYSLRPRREEVKLKEIDSKEEKYVAKELAVRTFEVTPIRAKDLEFGGVPGVFLIMFGLPVFLFLLLLMCKQKDPSLLNFPPPLPALYELWETRVFGVYLLWFLIQVLFYLLPIGKVVEGTPLIDGRRLKYRLNGFYAFILTSAVIGTSLFQGVEFHYVYSHFLQFALAATVFCVVLSVYLYMRSLKAPRNDLSPASSGNAVYDFFIGRELNPRIGTFDLKYFCELRPGLIGWVVINLVMLLAEMKIQDRAVPSLAMILVNSFQLLYVVDALWNEEALLTTMDIIHDGFGFMLAFGDLVWVPFIYSFQAFYLVSHPNEVSWPMASLIIVLKLCGYVIFRGANSQKNAFRKNPSDPKLAHLKTIHTSTGKNLLVSGWWGFVRHPNYLGDLIMALAWSLPCGFNHILPYFYIIYFTMLLVHREARDEYHCKKKYGVAWEKYCQRVPYRIFPYIY
- Difference (log2), untreated vs GFP [1]: 2.137 log2

- Difference (log2), PP1 vs untreated [2, 3]: 2.052
B4: KTN1 (protein, UniProt Q86UP2 1-1357, looked up)
Kinectin: MEFYESAYFIVLIPSIVITVIFLFFWLFMKETLYDEVLAKQKREQKLIPTKTDKKKAEKKKNKKKEIQNGNLHESDSESVPRDFKLSDALAVEDDQVAPVPLNVVETSSSVRERKKKEKKQKPVLEEQVIKESDASKIPGKKVEPVPVTKQPTPPSEAAASKKKPGQKKSKNGSDDQDKKVETLMVPSKRQEALPLHQETKQESGSGKKKASSKKQKTENVFVDEPLIHATTYIPLMDNADSSPVVDKREVIDLLKPDQVEGIQKSGTKKLKTETDKENAEVKFKDFLLSLKTMMFSEDEALCVVDLLKEKSGVIQDALKKSSKGELTTLIHQLQEKDKLLAAVKEDAAATKDRCKQLTQEMMTEKERSNVVITRMKDRIGTLEKEHNVFQNKIHVSYQETQQMQMKFQQVREQMEAEIAHLKQENGILRDAVSNTTNQLESKQSAELNKLRQDYARLVNELTEKTGKLQQEEVQKKNAEQAATQLKVQLQEAERRWEEVQSYIRKRTAEHEAAQQDLQSKFVAKENEVQSLHSKLTDTLVSKQQLEQRLMQLMESEQKRVNKEESLQMQVQDILEQNEALKAQIQQFHSQIAAQTSASVLAEELHKVIAEKDKQIKQTEDSLASERDRLTSKEEELKDIQNMNFLLKAEVQKLQALANEQAAAAHELEKMQQSVYVKDDKIRLLEEQLQHEISNKMEEFKILNDQNKALKSEVQKLQTLVSEQPNKDVVEQMEKCIQEKDEKLKTVEELLETGLIQVATKEEELNAIRTENSSLTKEVQDLKAKQNDQVSFASLVEELKKVIHEKDGKIKSVEELLEAELLKVANKEKTVQDLKQEIKALKEEIGNVQLEKAQQLSITSKVQELQNLLKGKEEQMNTMKAVLEEKEKDLANTGKWLQDLQEENESLKAHVQEVAQHNLKEASSASQFEELEIVLKEKENELKRLEAMLKERESDLSSKTQLLQDVQDENKLFKSQIEQLKQQNYQQASSFPPHEELLKVISEREKEISGLWNELDSLKDAVEHQRKKNNDLREKNWEAMEALASTEKMLQDKVNKTSKERQQQVEAVELEAKEVLKKLFPKVSVPSNLSYGEWLHGFEKKAKECMAGTSGSEEVKVLEHKLKEADEMHTLLQLECEKYKSVLAETEGILQKLQRSVEQEENKWKVKVDESHKTIKQMQSSFTSSEQELERLRSENKDIENLRREREHLEMELEKAEMERSTYVTEVRELKDLLTELQKKLDDSYSEAVRQNEELNLLKAQLNETLTKLRTEQNERQKVAGDLHKAQQSLELIQSKIVKAAGDTTVIENSDVSPETESSEKETMSVSLNQTVTQLQQLLQAVNQQLTKEKEHYQVLE
- Difference (log2), untreated vs GFP [1, 3]: -1.401
